Test results: patent US20260275312, “CRISPR NUCLEASE POLYPEPTIDES AND GENE EDITING SYSTEMS COMPRISING SUCH” (ARBOR BIOTECHNOLOGIES, INC., published 2026)
Changes are numbered by the printed parent chain.

Key:
[1] = target: T1, Nuclease H L54R (synthetic construct, L54R); test: cell_activity; HEK293T; PAM AAC; settings: tags: N-term SV40 NLS, XTEN linker + C-term nucleoplasmin NLS
T1 chain: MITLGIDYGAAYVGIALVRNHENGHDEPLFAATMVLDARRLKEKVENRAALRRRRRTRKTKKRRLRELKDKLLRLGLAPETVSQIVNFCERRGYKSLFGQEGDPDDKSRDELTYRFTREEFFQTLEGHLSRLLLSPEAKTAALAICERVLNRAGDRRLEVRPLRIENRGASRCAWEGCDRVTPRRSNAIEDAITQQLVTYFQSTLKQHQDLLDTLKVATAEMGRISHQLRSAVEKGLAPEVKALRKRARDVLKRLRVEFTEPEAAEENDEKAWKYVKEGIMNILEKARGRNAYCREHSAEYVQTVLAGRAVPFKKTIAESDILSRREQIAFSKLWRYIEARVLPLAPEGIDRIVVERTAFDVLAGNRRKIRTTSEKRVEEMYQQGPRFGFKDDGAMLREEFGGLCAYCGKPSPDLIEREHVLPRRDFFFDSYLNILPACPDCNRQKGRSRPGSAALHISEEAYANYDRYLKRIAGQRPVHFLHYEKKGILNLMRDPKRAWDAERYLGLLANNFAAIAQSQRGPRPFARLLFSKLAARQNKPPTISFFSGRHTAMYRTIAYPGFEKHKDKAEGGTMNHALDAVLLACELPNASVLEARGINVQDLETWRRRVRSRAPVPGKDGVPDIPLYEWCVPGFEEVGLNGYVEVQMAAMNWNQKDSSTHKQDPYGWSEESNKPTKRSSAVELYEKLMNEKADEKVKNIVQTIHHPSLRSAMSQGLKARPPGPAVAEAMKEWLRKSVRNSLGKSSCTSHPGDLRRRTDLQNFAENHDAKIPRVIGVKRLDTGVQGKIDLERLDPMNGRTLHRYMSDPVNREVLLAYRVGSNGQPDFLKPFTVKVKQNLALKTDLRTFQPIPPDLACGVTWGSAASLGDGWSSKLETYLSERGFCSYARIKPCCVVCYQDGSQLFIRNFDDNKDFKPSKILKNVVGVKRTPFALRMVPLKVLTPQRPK
Experimental: (§1) HEK293T cells were transfected with plasmids expressing the Nuclease H polypeptides and the gRNAs provided herein following the methods provided in Example 1 above. Gene editing efficiencies were determined by NGS following the methods also provided in Example 1. The NGS results were analyzed also following the methods provided in Example 1 above.
(§2) Indel ratios, referring to the percentage of NGS reads comprising indels, were calculated for the reference and for each variant. The indel ratios used for fold change calculations were the average of two technical replicates. To then calculate fold change in indel ratios, the indel ratio for each variant was divided by the indel ratio for the reference. […] Numbering is relative to the reference nuclease of SEQ ID NO: 64 (i.e., without an NLS).

[2] = target: T2, Nuclease H L323R (synthetic construct, L323R); test: cell_activity; HEK293T; PAM AAC; settings: tags: N-term SV40 NLS, XTEN linker + C-term nucleoplasmin NLS
T2 chain: T1 chain with R54L, L323R
Experimental: as §1, §2

B1: H AAVS1-T5 RNA guide ; AAVS1-T5 target (H) (ssRNA ; dsDNA)
RNA: GGCUAUAAUCCAUGCUGACCGUUUCAAUCAACCUGAUCUCUCUGCUUGCGCUGCAGGCUUCAUAAGAUCAGUAGGUUGAAAAGAGCAUCCGUCCGACAUGCACUCCGGGAUGGGGCAGUCCCGGCUCUUGCGGUUCCCGAUGCAGUUAUGUGUCCGCGGAACACGGUGUCGGACACGUCGCAAGACAGGAUGUGAGCCCAUUAUCCACAUUAGGAUCAAUGUACGCAUGAGCAGUCCGCAAUGCCGGGGACGCU
DNA 1: GGCTATAATCCATGCTGACC
DNA 2: GGTCAGCATGGATTATAGCC
[1]
  fold change in indel ratio vs reference: 16.6 fold indel vs reference
[2]
  fold change in indel ratio vs reference: 5.91 fold indel vs reference
